Biological target: Ror2-mCherry (xRor2-mCherry in pCS2+)
Experiment: fluorescence cross-correlation spectroscopy (FCCS); plasma membrane of live PAC2 cells expressing GFP-Vangl2 and Ror2-mCherry; untreated control (no Wnt protein added); laser spot scanned across the membrane for 16 s; diffusion with triplet fit

KD without m3 or m4 (untreated control): > 1100 nM
Substance: GFP-Vangl2 (meGFP-Vangl2 in pcDNA3.1) (from UniProt Q8UVJ6 1-526) (natural protein)
